Experimental data reported in patent US20030068675, “Position dependent recognition of GNN nucleotide triplets by zinc fingers” (published 2003).
Residue numbers refer to the chain shown, from its start.

Columns and labels:
Experiment in all cases: EMSA
Conditions in all cases: tags: MBP fusion
[1] = biological target: T1, ZFP SBS#1082 (synthetic)
T1 chain: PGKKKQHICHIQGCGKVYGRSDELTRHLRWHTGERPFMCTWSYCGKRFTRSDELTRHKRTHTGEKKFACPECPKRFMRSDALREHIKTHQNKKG
How it was run: (§1)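 Purified ZFP was titrated against labeled double-stranded target (1 nM or lower, at least 10-fold below expected Kd) carrying the natural binding site with flanks. Binding buffer was 10 mM Tris pH 7.5, 100 mM KCl, 1 mM MgCl2, 0.1 mM ZnCl2, 5 mM DTT, 10% glycerol, 0.02% BSA, with equilibration for at least 45 min. Bound and free target were separated on a 10% polyacrylamide gel.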

[2] = biological target: T2, ZFP SBS#980 (synthetic, UniProt P08047)
T2 chain: T1 chain with E23D, T55Q
How it was run: as §1

[3] = biological target: ZFP SBS#979 (synthetic, UniProt P08047)
How it was run: as §1

[4] = biological target: T3, ZFP SBS#464 (synthetic)
T3 chain: T1 chain with E23N, E53N, T55A, A81S, R83A, E84R
How it was run: as §1

[5] = biological target: T4, ZFP SBS#463 (synthetic)
T4 chain: T1 chain with E23N, E53N, T55A, R83A, E84R
How it was run: as §1

[6] = biological target: T5, ZFP SBS#1068 (synthetic)
T5 chain: T1 chain with R20D, S21R, D22S, E23H, E53H, R78Q, D80G, A81D, R83T, E84R
How it was run: as §1

[7] = biological target: T6, ZFP SBS#1069 (synthetic)
T6 chain: T1 chain with R20D, S21R, D22S, E23H, E53H, R78Q, D80G, A81S, R83T, E84R
How it was run: as §1

[8] = biological target: T7, ZFP SBS#1071 (synthetic, UniProt P08047)
T7 chain: T1 chain with R20D, S21R, D22S, E23H, R50Q, D52G, E53D, A81H, R83S, E84R
How it was run: as §1

[9] = biological target: T8, ZFP SBS#1070 (synthetic, UniProt P08047)
T8 chain: T1 chain with R20D, S21R, D22S, E23H, R50Q, D52G, E53S, A81H, R83S, E84R
How it was run: as §1

[10] = biological target: ZFP SBS#1073 (synthetic)
How it was run: as §1

[11] = biological target: ZFP SBS#1072 (synthetic)
How it was run: as §1

[12] = biological target: T9, ZFP SBS#1075 (synthetic)
T9 chain: T1 chain with E53A, R56K, R83T, E84R
How it was run: as §1

[13] = biological target: T10, ZFP SBS#1076 (synthetic)
T10 chain: T1 chain with R50Q, D52G, E53S, A81E, L82R, R83K, E84R
How it was run: as §1

[14] = biological target: T11, ZFP SBS#1077 (synthetic)
T11 chain: T1 chain with R50Q, D52G, E53D, T55R, A81E, L82R, R83K, E84R
How it was run: as §1

[15] = biological target: ZFP SBS#1079 (synthetic, UniProt P08047)
How it was run: as §1

[16] = biological target: ZFP SBS#1078 (synthetic, UniProt P08047)
How it was run: as §1

[17] = biological target: T12, ZFP SBS#1080 (synthetic)
T12 chain: T1 chain with E53N, T55A
How it was run: as §1

[18] = biological target: T13, ZFP SBS#1081 (synthetic, UniProt P08047)
T13 chain: T1 chain with E23A, E53N, A81H, R83S, E84R
How it was run: as §1

[19] = biological target: T14, ZFP SBS#1083 (synthetic)
T14 chain: T1 chain with R20Q, D22G, E23D, E53A, T55S
How it was run: as §1

[20] = biological target: T15, ZFP SBS#1085 (synthetic)
T15 chain: T1 chain with E53N, T55A, R78Q, D80S, A81H, R83A, E84R
How it was run: as §1

[21] = biological target: T16, ZFP SBS#1084 (synthetic)
T16 chain: T1 chain with E53N, T55A, R78M, D80H, A81H, R83S, E84R
How it was run: as §1

[22] = biological target: ZFP SBS#1086 (synthetic)
How it was run: as §1

[23] = biological target: T17, ZFP SBS#1088 (synthetic, UniProt P08047)
T17 chain: T1 chain with R20E, S21R, D22G, E23D, T55Q, A81H
How it was run: as §1

[24] = biological target: T18, ZFP SBS#1087 (synthetic, UniProt P08047)
T18 chain: T1 chain with R20E, S21R, D22G, E23D, T55Q, A81H, R83A
How it was run: as §1

[25] = biological target: T19, ZFP SBS#1089 (synthetic)
T19 chain: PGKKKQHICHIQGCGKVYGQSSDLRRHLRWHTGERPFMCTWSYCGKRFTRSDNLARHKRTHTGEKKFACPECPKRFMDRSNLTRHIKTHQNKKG
How it was run: as §1

[26] = biological target: T20, ZFP SBS#1094 (synthetic)
T20 chain: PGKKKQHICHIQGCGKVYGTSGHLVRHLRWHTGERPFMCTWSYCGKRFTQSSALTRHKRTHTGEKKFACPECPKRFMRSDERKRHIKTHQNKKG
How it was run: as §1

[27] = biological target: T21, ZFP SBS#1095 (synthetic)
T21 chain: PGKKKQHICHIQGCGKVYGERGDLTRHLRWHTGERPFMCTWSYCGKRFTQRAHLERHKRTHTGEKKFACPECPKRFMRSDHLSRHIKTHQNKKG
How it was run: as §1

[28] = biological target: T22, ZFP SBS#1096 (synthetic)
T22 chain: T21 chain with E20D, G22S, D23S
How it was run: as §1

[29] = biological target: T23, ZFP SBS#1097 (synthetic)
T23 chain: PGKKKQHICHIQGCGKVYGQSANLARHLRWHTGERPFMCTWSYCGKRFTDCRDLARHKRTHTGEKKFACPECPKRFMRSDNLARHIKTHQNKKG
How it was run: as §1

[30] = biological target: T24, ZFP SBS#1102 (synthetic)
T24 chain: T23 chain with D50Q, C51S, R52G, D53S, A55T, A83T, R84Q
How it was run: as §1

[31] = biological target: ZFP SBS#1103 (synthetic)
How it was run: as §1

[32] = biological target: ZFP SBS#1106 (synthetic)
How it was run: as §1

[33] = biological target: ZFP SBS#1105 (synthetic)
How it was run: as §1

Chain of ZFP SBS#1106 (synthetic) (chain, as listed by the source): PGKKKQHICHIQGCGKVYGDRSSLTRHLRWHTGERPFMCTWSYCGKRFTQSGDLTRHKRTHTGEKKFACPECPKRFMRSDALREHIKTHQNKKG
Chain of ZFP SBS#1103 (synthetic) (chain, as listed by the source): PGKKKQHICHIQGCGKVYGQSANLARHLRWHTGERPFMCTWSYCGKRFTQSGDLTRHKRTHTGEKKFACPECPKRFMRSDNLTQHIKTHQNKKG
Chain of ZFP SBS#1073 (synthetic) (chain, as listed by the source): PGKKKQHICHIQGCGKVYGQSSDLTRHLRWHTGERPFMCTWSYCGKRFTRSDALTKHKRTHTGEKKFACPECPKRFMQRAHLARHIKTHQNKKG
Chain of ZFP SBS#1072 (synthetic) (chain, as listed by the source): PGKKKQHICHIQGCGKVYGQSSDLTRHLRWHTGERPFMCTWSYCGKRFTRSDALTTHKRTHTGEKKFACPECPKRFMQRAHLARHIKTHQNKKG
Chain of ZFP SBS#1078 (P08047 other isoform, or with tags, fused parts or gaps): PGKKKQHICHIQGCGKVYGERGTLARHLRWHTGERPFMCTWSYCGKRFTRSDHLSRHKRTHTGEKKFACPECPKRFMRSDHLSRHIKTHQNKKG
Chain of ZFP SBS#1105 (synthetic) (chain, as listed by the source): as the sequence (P08047 other isoform, or with tags, fused parts or gaps) above, with T23D, A25T, R50Q, D52G, H53D, S55T, H81A, S83R, R84E counted along it

B1: CTGGCGGCG (dsDNA)
DNA 1: CTGGCGGCG
DNA 2: CGCCGCCAG
- Kd [1]: 0.152 nM
- Kd [2]: 2.2 nM
- Kd [3]: 1.59 nM

B2: GTGGAGGAGA (dsDNA)
DNA 1: GTGGAGGAGA
DNA 2: TCTCCTCCAC
- Kd [4]: 0.4 nM
- Kd [5]: 0.5 nM

B3: GCAGGGGGC (dsDNA)
DNA 1: GCAGGGGGC
DNA 2: GCCCCCTGC
- Kd [6]: 2.05 nM

B4: GCAGGCGGT (dsDNA)
DNA 1: GCAGGCGGT
DNA 2: ACCGCCTGC
- Kd [7]: 0.1 nM

B5: GGGGCAGGC (dsDNA)
DNA 1: GGGGCAGGC
DNA 2: GCCTGCCCC
- Kd [8]: 0.2 nM
- Kd [9]: 0.456 nM

B6: GGATTGGCT (dsDNA)
DNA 1: GGATTGGCT
DNA 2: AGCCAATCC
- Kd [10]: 1.37 nM
- Kd [11]: 0.46 nM

B7: GTGTTGGCG (dsDNA)
DNA 1: GTGTTGGCG
DNA 2: CGCCAACAC
- Kd [12]: 0.915 nM

B8: GCGGCAGCG (dsDNA)
DNA 1: GCGGCAGCG
DNA 2: CGCTGCCGC
- Kd [13]: 4.1 nM
- Kd [14]: 6.2 nM

B9: GGGGGGGCC (dsDNA)
DNA 1: GGGGGGGCC
DNA 2: GGCCCCCCC
- Kd [15]: 4.1 nM
- Kd [16]: 0.2 nM

B10: CTGGAGGCG (dsDNA)
DNA 1: CTGGAGGCG
DNA 2: CGCCTCCAG
- Kd [17]: 1.37 nM

B11: GGGGAGGTG (dsDNA)
DNA 1: GGGGAGGTG
DNA 2: CACCTCCCC
- Kd [18]: 0.05 nM

B12: CTGGTGGCA (dsDNA)
DNA 1: CTGGTGGCA
DNA 2: TGCCACCAG
- Kd [19]: 0.152 nM

B13: GGTGAGGCG (dsDNA)
DNA 1: GGTGAGGCG
DNA 2: CGCCTCACC
- Kd [20]: 0.46 nM
- Kd [21]: 0.5 nM

B14: GGGGCTCGG (dsDNA)
DNA 1: GGGGCTCGG
DNA 2: CCGAGCCCC
- Kd [22]: 0.1 nM

B15: CGGGCGGCC (dsDNA)
DNA 1: CGGGCGGCC
DNA 2: GGCCGCCCG
- Kd [23]: 0.905 nM
- Kd [24]: 1.24 nM

B16: GACGAGGCT (dsDNA)
DNA 1: GACGAGGCT
DNA 2: AGCCTCGTC
- Kd [25]: 0.171 nM

B17: GCGGTTGGT (dsDNA)
DNA 1: GCGGTTGGT
DNA 2: ACCAACCGC
- Kd [26]: 12.3 nM

B18: GGGGGAGCC (dsDNA)
DNA 1: GGGGGAGCC
DNA 2: GGCTCCCCC
- Kd [27]: 0.395 nM
- Kd [28]: 0.019 nM

B19: GAGGCCGAA (dsDNA)
DNA 1: GAGGCCGAA
DNA 2: TTCGGCCTC
- Kd [29]: 0.77 nM

B20: AAGGCAGAA (dsDNA)
DNA 1: AAGGCAGAA
DNA 2: TTCTGCCTT
- Kd [30]: 8.15 nM
- Kd [31]: 1.4 nM

B21: CTGGCAGCC (dsDNA)
DNA 1: CTGGCAGCC
DNA 2: GGCTGCCAG
- Kd [32]: 0.19 nM
- Kd [33]: 2.45 nM
